The results in this text go back to article PMC4289617.

The target of this experiment is WDR5Δ23 (WD repeat domain 5, residues 24–334) (human) (UniProt P61964). In words: fluorescence polarisation.
Consider “Ac-2mer (Ac-3mer without Ala3) (peptide)”, for which the IC50 – broadly, the concentration that inhibits the measured activity by half – turned out to be 125 µM and the Ki – broadly, a dissociation constant, usually derived from enzyme kinetics or from competition with a known ligand – is 27 µM.
The like results for Ac-3mer (Ac-ARA-NH2) (peptide) were, in that order, 0.54 µM and 0.12 µM.
The like results for Ac-H3-3mer (Ac-ART-NH2) (peptide) were, in that order, 0.08 µM and 0.02 µM.
Taken in the same sequence, the figures for CHO-3mer (CHO-ARA-NH2) (peptide) were 14.9 µM and 3.2 µM.
With H2N-3mer (H2N-ARA-NH2) (peptide), the IC50 was over 300 µM and the Ki was over 50 µM.
Substance H3-3mer (H2N-ART-NH2) (peptide) displayed an IC50 of 127 µM and a Ki of 27.3 µM.
Taken in the same sequence, the figures for Δ1 (Ac-AR-(N-Me)A-NH2) (peptide) were over 300 µM and over 50 µM.
Δ2a (Ac-ARA-CONHMe) (peptide) returned an IC50 of 0.7 µM and a Ki of 0.15 µM.
Taken in the same sequence, the figures for Δ2b (Ac-ARA-CONMe2) (peptide) were 30 µM and 6.5 µM.
Taken in the same sequence, the figures for Δ2c (Ac-ARA-COOCH3) (peptide) were 7.3 µM and 1.6 µM.
